Assay results: paper PMC10465942, “N-acetylmuramic acid recognition by MurK kinase from the MurNAc auxotrophic oral pathogen Tannerella forsythia” (The Journal of Biological Chemistry, 2023)

Assays:
[1] = target: K1058, paralogous MurNAc kinase of Tannerella forsythia (Tannerella forsythia); assay: SEC; SD200 16/60 column, 4 °C; MurK in 200 mM NaCl, 50 mM MES, pH 6; K1058 in 750 mM NaCl, 25 mM Tris-HCl, pH 8.5; apparent mass about 60 kDa against 32.4 and 32.3 kDa for the monomers
[2] = target: Tannerella forsythia ATP-dependent murein sugar kinase (MurK) (Tannerella forsythia); assay: as above

Row | Substance | stoichiometry N [1] | stoichiometry N [2]
1 | K1058, paralogous MurNAc kinase of Tannerella forsythia (enzyme) | 2 | 
2 | Tannerella forsythia ATP-dependent murein sugar kinase (MurK) (enzyme) |  | 2
